Results taken from US20210040232A1.

Legend:
[1] = target: hCTLA-4 extracellular domain (aa 1-161) fused to the trans-membrane and cytoplasmic domain of hCD300a (aa 181-299), on Jurkat/NFAT-Luc cells (human) (UniProt Q9UGN4); test: cell-based or functional assay
[2] = target: mf CTLA-4 extracellular domain (aa 1-161) fused to the trans-membrane and cytoplasmic domain of hCD300a (aa 181-299), on Jurkat/NFAT-Luc cells (Macaca fascicularis; human) (UniProt G7PL88); test: cell-based or functional assay
Chain of mf CTLA-4 extracellular domain (aa 1-161) fused to the trans-membrane and cytoplasmic domain of hCD300a (aa 181-299), on Jurkat/NFAT-Luc cells (Macaca fascicularis; human) (Q9UGN4 other isoform, or with tags, fused parts or gaps, form in doubt): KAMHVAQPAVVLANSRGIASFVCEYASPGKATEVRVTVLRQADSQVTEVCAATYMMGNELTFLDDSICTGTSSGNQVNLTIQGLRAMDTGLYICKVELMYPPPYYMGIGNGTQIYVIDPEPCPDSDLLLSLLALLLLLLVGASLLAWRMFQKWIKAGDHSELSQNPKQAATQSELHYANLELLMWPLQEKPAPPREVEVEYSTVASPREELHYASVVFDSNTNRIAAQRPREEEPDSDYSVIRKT

[3] = target: human CTLA-4 (amino acids M1-N223) on stably transfected VI-fibroblast cells (human) (UniProt P16410); test: ECL cell binding, VI-fibroblast/hCTLA-4 cells
Chain of human CTLA-4 (amino acids M1-N223) on stably transfected VI-fibroblast cells (human) (P16410 36-223 limits assumed): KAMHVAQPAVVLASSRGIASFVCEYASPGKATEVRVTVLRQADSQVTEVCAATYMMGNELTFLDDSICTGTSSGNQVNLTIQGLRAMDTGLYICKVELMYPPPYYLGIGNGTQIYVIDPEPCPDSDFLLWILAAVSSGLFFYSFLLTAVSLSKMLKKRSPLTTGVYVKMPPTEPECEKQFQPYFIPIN

Chain of hCTLA-4 extracellular domain (aa 1-161) fused to the trans-membrane and cytoplasmic domain of hCD300a (aa 181-299), on Jurkat/NFAT-Luc cells (human) (Q9UGN4 other isoform, or with tags, fused parts or gaps limits assumed, form in doubt): as the sequence (Q9UGN4 other isoform, or with tags, fused parts or gaps, form in doubt) above, with N14S, M106L counted along it

Substance | Fold induction of IL-2 at 100 nM, APC HEK293/hCD20/hCD80 (isotype control) [1] | Fold induction of IL-2 at 100 nM, APC HEK293/hCD20/hCD86 (isotype control) [2] | ratio of RLU signal to parental VI-fibroblast at 0.4 nM Ab [3] | ratio of RLU signal to parental VI-fibroblast at 0.6 nM Ab [3]
hIgG1 Isotype Control (antibody) | 0.8 fold | 1.1 fold | 1 | –
mIgG2 Isotype Control (antibody) | – | – | – | 1
hIgG2 Isotype (antibody) | 1 fold | 1 fold | – | –
